Experimental data as given in publication PMC7067740, “NDRG2 Protects the Brain from Excitotoxicity by Facilitating Interstitial Glutamate Uptake” (Translational Stroke Research, 2019).

Biological target: endogenous Na+/K+-ATPase β1 (mouse (endogenous in cultured mouse …, UniProt P14094 1-304))
Test: cell-based or functional assay

B1: endogenous NDRG2 (N-myc downstream regulated gene 2) (natural protein, UniProt Q9QYG0 1-371, looked up)
chain: MAELQEVQITEEKPLLPGQTPETAKEAELAARILLDQGQTHSVETPYGSVTFTVYGTPKPKRPAIFTYHDVGLNYKSCFQPLFRFGDMQEIIQNFVRVHVDAPGMEEGAPVFPLGYQYPSLDQLADMIPCILQYLNFSTIIGVGVGAGAYILSRYALNHPDTVEGLVLINIDPNAKGWMDWAAHKLTGLTSSIPDMILGHLFSQEELSGNSELIQKYRGIIQHAPNLENIELYWNSYNNRRDLNFERGGETTLKCPVMLVVGDQAPHEDAVVECNSKLDPTQTSFLKMADSGGQPQLTQPGKLTEAFKYFLQGMGYMASSCMTRLSRSRTASLTSAASIDGSRSRSRTLSQSSESGTLPSGPPGHTMEVSC
  half-life of endogenous Na+/K+-ATPase β1 in astrocytes after TAT-Ctrl treatment, with 100 μM emetine, immunoblot: 1.83 h
  half-life of endogenous Na+/K+-ATPase β1 in astrocytes after TAT-β1(244–263) treatment, with 100 μM emetine, immunoblot: 1.08 h
